Experimental findings from US20240182575A1 are described below.

Test [1] addresses HuCTLA4-HuIgG1 (fusion protein of the extracellular part of human CD152 and human Fc gamma 1, CTLA4-Ig) (human) (UniProt P16410). The experiment in a line: alphascreen, CTLA4-Fc; blocked ligand biotinylated CD80-Fc. In general terms: In Alpha technology, singlet oxygen from a donor bead excites a nearby acceptor bead.
Test [2] deals with human CTLA4 (Y201 mutated to valine) on stably transfected CHO-K1 cells (human) (UniProt P16410). The experiment in a line: FACS competition, human CTLA4 CHO cells; blocked ligand HuB7.1/Fc.
Test [3] deals with rhB7-H2-Fc (fusion protein of the extracellular part of human B7-H2 (ICOSL) and mouse Fc gamma 1, R&D Systems Cat #165-B7) (human; mouse) (UniProt O75144). The experiment in a line: competition ELISA, coated B7-H2; competes with ICOS-biotin. (An ELISA detects its analyte on a solid surface through an enzyme-linked reagent.)
Chain of rhB7-H2-Fc (fusion protein of the extracellular part of human B7-H2 (ICOSL) and mouse Fc gamma 1, R&D Systems Cat #165-B7) (human; mouse) (O75144 other isoform, or with tags, fused parts or gaps limits assumed): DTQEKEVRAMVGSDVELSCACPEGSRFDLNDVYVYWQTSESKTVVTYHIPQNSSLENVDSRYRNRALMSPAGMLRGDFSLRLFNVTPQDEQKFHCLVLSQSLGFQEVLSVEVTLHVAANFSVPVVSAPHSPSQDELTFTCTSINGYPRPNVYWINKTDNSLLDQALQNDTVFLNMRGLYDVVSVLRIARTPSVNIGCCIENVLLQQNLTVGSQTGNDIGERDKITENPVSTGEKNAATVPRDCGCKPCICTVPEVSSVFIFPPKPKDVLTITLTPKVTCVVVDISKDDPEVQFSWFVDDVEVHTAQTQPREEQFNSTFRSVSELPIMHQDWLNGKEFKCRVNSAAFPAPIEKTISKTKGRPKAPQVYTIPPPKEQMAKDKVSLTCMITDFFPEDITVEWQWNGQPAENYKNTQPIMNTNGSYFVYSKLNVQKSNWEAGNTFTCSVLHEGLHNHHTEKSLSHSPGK

Chain of HuCTLA4-HuIgG1 (fusion protein of the extracellular part of human CD152 and human Fc gamma 1, CTLA4-Ig) (human) (P16410 36-161 limits assumed): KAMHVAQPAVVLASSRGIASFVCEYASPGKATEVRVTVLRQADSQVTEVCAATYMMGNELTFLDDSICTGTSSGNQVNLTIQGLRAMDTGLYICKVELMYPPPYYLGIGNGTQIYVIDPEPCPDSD
Chain of cold ICOS (receptor) (Q9Y6W8 21-140): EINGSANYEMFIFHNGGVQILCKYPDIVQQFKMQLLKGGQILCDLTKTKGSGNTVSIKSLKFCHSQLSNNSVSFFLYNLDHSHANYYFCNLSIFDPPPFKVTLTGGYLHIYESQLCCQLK
Chain of human CTLA4 (Y201 mutated to valine) on stably transfected CHO-K1 cells (human) (P16410 other isoform, or with tags, fused parts or gaps, change not shown): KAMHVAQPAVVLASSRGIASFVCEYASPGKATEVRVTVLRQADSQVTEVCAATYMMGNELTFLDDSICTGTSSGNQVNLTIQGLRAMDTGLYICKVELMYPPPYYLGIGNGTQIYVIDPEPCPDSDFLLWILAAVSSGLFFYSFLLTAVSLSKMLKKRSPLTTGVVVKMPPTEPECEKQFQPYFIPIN

In test [1], BNI3 fab gave an IC50 (read off the curve) of 2 nM.
As for “Mouse-anti-human CTLA4 clone BNI3 (antibody)”, the IC50 (read off the curve) in test [2] turned out to be 10 nM; in test [1], 0.3 nM.
In the case of cold ICOS (receptor), the IC50 (read off the curve) in test [3] came to 20 nM.
